Legend:
[1] = target: phosphorylated HemRFL (full-length HemR) (Leptospira biflexa); assay: SEC
[2] = target: phosphorylated HemRREC (phospho-receiver domain of HemR) (Leptospira biflexa); assay: SEC

| Substance | stoichiometry N [1] | stoichiometry N [2] |
| --- | --- | --- |
| phosphorylated HemRFL (full-length HemR) (natural protein) | 2 | – |
| phosphorylated HemRREC (phospho-receiver domain of HemR) (domain or fragment) | – | 2 |
